Data published in US20250092160A1 (published 2025).
Numbering of substitutions follows the chain as printed.

T1: CD32a 131H FcRγIIa (human, UniProt P12318 36-218)
T1 sequence (looked up): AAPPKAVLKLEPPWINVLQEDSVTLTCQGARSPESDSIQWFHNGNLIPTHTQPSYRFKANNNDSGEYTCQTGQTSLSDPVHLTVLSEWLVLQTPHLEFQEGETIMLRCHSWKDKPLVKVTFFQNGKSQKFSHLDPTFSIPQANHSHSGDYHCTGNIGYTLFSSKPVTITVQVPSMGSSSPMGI

T2: CD32a 131R FcRγIIa (human, UniProt P12318 36-218)
T2 sequence (looked up): T1 sequence (looked up) with H132R

T3: CD32b/c FcRγIIb (human, UniProt P31994 46-217)
T3 sequence (looked up): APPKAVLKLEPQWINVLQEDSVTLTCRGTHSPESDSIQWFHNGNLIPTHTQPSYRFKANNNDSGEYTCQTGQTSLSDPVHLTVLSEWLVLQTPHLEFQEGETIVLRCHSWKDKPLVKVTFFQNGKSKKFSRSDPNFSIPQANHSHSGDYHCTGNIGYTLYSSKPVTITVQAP

T4: CD19 (Table 9) (UniProt P15391 20-291)
T4 sequence (looked up): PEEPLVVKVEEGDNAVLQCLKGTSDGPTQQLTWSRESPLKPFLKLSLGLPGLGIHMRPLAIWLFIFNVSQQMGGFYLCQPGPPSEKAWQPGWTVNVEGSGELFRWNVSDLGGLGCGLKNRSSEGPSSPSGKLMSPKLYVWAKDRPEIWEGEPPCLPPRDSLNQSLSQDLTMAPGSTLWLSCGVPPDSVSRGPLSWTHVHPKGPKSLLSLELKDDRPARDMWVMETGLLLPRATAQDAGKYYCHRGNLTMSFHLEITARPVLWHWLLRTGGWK

T5: Recombinant CD20 (ACROBiosystems Cat #CD0-H52H3) (UniProt P11836 1-297)
T5 construct: also called monovalent CD20
T5 sequence: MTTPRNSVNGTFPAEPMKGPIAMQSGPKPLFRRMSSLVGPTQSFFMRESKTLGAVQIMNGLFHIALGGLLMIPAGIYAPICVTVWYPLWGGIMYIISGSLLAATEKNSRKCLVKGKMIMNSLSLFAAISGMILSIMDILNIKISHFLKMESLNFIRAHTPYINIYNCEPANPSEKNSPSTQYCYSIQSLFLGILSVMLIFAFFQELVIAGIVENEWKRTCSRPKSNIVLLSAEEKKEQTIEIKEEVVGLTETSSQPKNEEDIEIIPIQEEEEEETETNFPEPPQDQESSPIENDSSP

T6: Recombinant CD19 (ACROBiosystems Cat #CD9-H52H2) (UniProt P15391 20-291)
T6 construct: also called monovalent CD19
T6 sequence: T4 sequence (looked up)

B1: Rituxan (antibody)
VH: not shown
VL: QIVLSQSPAILSASPGEKVTMTCRASSSVSYIHWFQQKPGSSPKPWIYATSNLASGVPVRFSGSGSGTSYSLTISRVEAEDAATYYCQQWTSNPPTFGGGTKLEIKRTVAAPSVFIFPPSDEQLKSGTASVVCLLNNFYPREAKVQWKVDNALQSGNSQESVTEQDSKDSTYSLSSTLTLSKADYEKHKVYACEVTHQGLSSPVTKSFNRGEC
B2: B19c66 (antibody, human IgG1, kappa)
light: not shown
heavy: not shown
chain: CPPCPAPELLGGPSVFLFPPKPKDTLMISRTPEVTCVVVDVSHEDPEVKFNWYVDGVEVHNAKTKPREEQYNSTYRVVSVLTVLHQDWLNGKEYKCKVSNKALPAPIEKTISKAKGQPREPQVYVYPPSRDELTKNQVSLTCLVKGFYPSDIAVEWESNGQPENNYKTTPPVLDSDGSFALVSKLTVDKSRWQQGNVFSCSVMHEALHNHYTQKSLSLSPGK
B3: B19c66AAC9 (antibody, human IgG1, kappa)
light: not shown
heavy: QVQLQQSGAELVRPGSSVKISCKASGYAFSSYWMNWVKQRPGQGLEWIGQIWPGDGDTNYNGKFKGKATLTADESSSTAYMQLSSLASEDSAVYFCARRETTTVGRYYYAMDYWGQGTTVTVSSASTKGPSVFPLAPSSKSTSGGTAALGCLVKDYFPEPVTVSWNSGALTSGVHTFPAVLQSSGLYSLSSVVTVPSSSLGTQTYICNVNHKPSNTKVDKKVEPKSCDKTHTCPPCPAPKRRGGPSVFLFPPKPKDTLMISRTPEVTCVVVDVSHEDPEVKFNWYVDGVEVHNAKTKPREEQYNSTYRVVSVLTVLHQDWLNGKEYKCKVSNKALPAPIEKTISKAKGQPREPQVYVLPPSRDELTKNQVSLLCLVKGFYPSDIAVEWESNGQPENNYLTWPPVLDSDGSFFLYSKLTVDKSRWQQGNVFSCSVMHEALHNHYTQKSLSLSPGK
chain: B2 chain with L9D, L10E
B4: HB1905 (bispecific antibody, human IgG1, kappa)
light 1: DIQMTQTTSSLSASLGDRVTISCRASQDISKYLNWYQEKPDGTVKLLIYHTSRLHSGVPSRFSGSGSGTDYSLTISNLEQEDIATYFCQQGNTLPYTFGGGTKLEIKRTVAAPSVFIFPPSDEQLKSGTASVKCLLNNFYPREAKVQWKVDNALQSGNSQESVTEQDSKDSTYSLSSTLTLSKADYEKHKVYACEVTHQGLSSPVTKSFNRGEC
heavy 1: EVKLQESGPGLVAPSQSLSVTCTVSGVSLPDYGVSWIRKPPRKGLEWLGVIWGSETTYYNSALKSRLTIIKDNSKSQVFLKMSSLQTDDTAIYYCAKHYYYGGSYAMDYWGQGTSVTVSSASTKGPSVFPLAPSSKSTSGGTAALGCLVKDYFPEPVTVSWNSGALTSGVHTFPAVLQSSGLYSLESVVTVPSSSLGTQTYICNVNHKPSNTKVDKKVEPKSCTDWSPYADQSIKVRISLKSALGDKAYEWNDNEMYLFRSSVAYAMRQYFLKVKNQMILFGEEDVRVANLKPRISFNFFVTAPKNVSDIIPRTEVEKAIRMSRSRINDAFRLNDNSLEFLGIQPTLGPPNQPPVSTSTSPTRSMAPGAVHLPQPVSTRDKTHTCPPCPAPELLGGPSVFLFPPKPKDTLMISRTPEVTCVVVDVSHEDPEVKFNWYVDGVEVHNAKTKPREEQYNSTYRVVSVLTVLHQDWLNGKEYKCKVSNKALPAPIEKTISKAKGQPREPQVCTLPPSRDELTKNQVSLSCAVKGFYPSDIAVEWESNGQPENNYKTTPPVLDSDGSFFLVSKLTVDKSRWQQGNVFSCSVMHEALHNRFTQKSLSLSPG
light 2: QVQLQQPGAELVKPGASVKMSCKASGYTFTSYNMHWVKKTPGRGLEWIGAIYPGNGDTSYNQKFKGKATLTADKSSSTAYMQLSSLTSEDSAVYYCARSTYYGGDWYFNVWGAGTLVTVSSASVAAPSVFIFPPSDEQLKSGTASVECLLNNFYPREAKVQWKVDNALQSGNSQESVTEQDSKDSTYSLSSTLTLSKADYEKHKVYACEVTHQGLSSPVTKSFNRGEC
heavy 2: not shown
notes: also called anti-CD20/anti-CD19 bispecific GEM-DIMER
B5: HB1906 (bispecific antibody, human IgG1, kappa)
light 1: B4 light 1
heavy 1: B4 heavy 1
light 2: B4 light 2 with K39E
heavy 2: not shown
notes: as for B4

Columns and labels:
CD16a 158V FcRγIIIa [1] = biological target: T7, CD16a 158V FcRγIIIa (human, UniProt P08637 17-208)
CD16b FcRγIIIb = CD16b FcRγIIIb (human, UniProt O75015 20-208)
CD32a 131H FcRγIIa = biological target: T1, CD32a 131H FcRγIIa
CD32a 131R FcRγIIa [2] = biological target: T2, CD32a 131R FcRγIIa
CD32b/c FcRγIIb = biological target: T3, CD32b/c FcRγIIb
CD64 FcRγI [3] = biological target: T8, CD64 FcRγI (human, UniProt P12314 16-288)
CD19 (Table 9) = biological target: T4, CD19 (Table 9)
[4] = biological target: T5, Recombinant CD20 (ACROBiosystems Cat …); assay: SPR Carterra LSA
[5] = biological target: T6, Recombinant CD19 (ACROBiosystems Cat …); assay: SPR Carterra LSA
CD16a 158V FcRγIIIa [6] = biological target: T7, CD16a 158V FcRγIIIa; assay: SPR Carterra LSA
CD32a 131R FcRγIIa [7] = biological target: T2, CD32a 131R FcRγIIa; assay: SPR Carterra LSA
CD64 FcRγI [8] = biological target: T8, CD64 FcRγI; assay: SPR Carterra LSA

T8 sequence (P12314 16-288 limits assumed): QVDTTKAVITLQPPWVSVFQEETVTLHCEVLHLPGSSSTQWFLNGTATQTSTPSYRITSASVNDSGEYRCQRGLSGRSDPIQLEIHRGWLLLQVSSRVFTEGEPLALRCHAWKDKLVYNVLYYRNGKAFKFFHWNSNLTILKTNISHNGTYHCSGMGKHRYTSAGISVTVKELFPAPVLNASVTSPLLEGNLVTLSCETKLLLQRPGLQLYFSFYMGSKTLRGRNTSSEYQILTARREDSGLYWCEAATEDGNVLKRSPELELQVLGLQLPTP
T7 sequence (P08637 17-208 F176V limits assumed): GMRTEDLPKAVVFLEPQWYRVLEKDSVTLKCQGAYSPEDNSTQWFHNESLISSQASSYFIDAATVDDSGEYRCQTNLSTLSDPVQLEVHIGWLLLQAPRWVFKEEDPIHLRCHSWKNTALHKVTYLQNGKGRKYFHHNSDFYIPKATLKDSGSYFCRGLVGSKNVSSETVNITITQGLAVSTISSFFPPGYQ
CD16b FcRγIIIb, sequence (O75015 20-208 limits assumed): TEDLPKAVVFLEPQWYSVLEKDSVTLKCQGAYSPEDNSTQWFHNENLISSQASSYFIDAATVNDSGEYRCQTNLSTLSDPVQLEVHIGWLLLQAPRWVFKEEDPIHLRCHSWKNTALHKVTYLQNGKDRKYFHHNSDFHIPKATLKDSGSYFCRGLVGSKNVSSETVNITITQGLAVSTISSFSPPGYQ

Binder | Kd (CD19 (Table 9)) | binding result [4] | binding result [5] | binding result (CD16a 158V FcRγIIIa [6]) | binding result (CD32a 131R FcRγIIa [7]) | binding result (CD64 FcRγI [8]) | also measured
B1 | – | – | – | – | – | – | Kd (CD16a 158V FcRγIIIa [1]): 0.715 µM; Kd (CD16b FcRγIIIb): 1.53 µM; Kd (CD32a 131H FcRγIIa): 0.892 µM; Kd (CD32a 131R FcRγIIa [2]): 1.25 µM; Kd (CD32b/c FcRγIIb): 1.52 µM; Kd (CD64 FcRγI [3]): 0.0528 µM
B2 | 0.0218 µM | – | – | – | – | – | –
B3 | 0.021 µM | – | – | – | – | – | –
B4 | – | binds | binds | binds | binds | binds | –
B5 | – | binds | binds | binds | binds | binds | –
